For assay [1], the target named is T1, FceRII (CD23, FCEL) (human, UniProt P06734).
T1 chain: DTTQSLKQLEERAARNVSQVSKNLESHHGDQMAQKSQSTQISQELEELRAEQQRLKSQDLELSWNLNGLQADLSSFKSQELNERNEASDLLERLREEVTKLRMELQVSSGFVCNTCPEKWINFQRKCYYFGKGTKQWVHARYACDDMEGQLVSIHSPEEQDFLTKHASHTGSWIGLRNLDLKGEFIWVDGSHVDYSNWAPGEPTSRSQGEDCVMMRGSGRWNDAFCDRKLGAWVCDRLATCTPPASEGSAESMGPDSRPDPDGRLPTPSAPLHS
In words: FACS. (In flow cytometry, cells or beads pass a laser one at a time.)

Assay [2] addresses T2, FceRI alpha (FCEH) (human, UniProt P12319).
T2 chain: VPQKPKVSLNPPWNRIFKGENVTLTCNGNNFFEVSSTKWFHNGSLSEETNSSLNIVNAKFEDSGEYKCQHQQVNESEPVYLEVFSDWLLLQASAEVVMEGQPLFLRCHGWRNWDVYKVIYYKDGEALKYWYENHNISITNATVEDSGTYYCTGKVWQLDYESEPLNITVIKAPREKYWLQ
Description: FACS.

B1: IgE mutant 3 (protein)
chain: ASTQSPSVFPLTRCCKNIPSNATSVTLGCLATGYFPEPVMVTWDTGSLNGTTMTLPATTLTLSGHYATISLLTVSGAWAKQMFTCRVAHTPSSTDWVDNKTFSVCSRDFTPPTVKILQSSCDGGGHFPPTIQLLCLVSGYTPGTINITWLEDGQVMDVDLSTASTTQEGELASTQSELTLSQKHWLSDRTYTCQVTYQGHTFEDSTKKCADSNPRGVSAYLSRPSPFDLFIRKSPTITCLVVDLAPSKGTVNLTWSRASGKPVNHSTRKEEKQRNGTLTVTSTLPVGTRDWIEGETYQCRVTHPHLPRALMRSTTKTSGPRAAPEVYAFATPEWPGSRDKRTLACLIQNFMPEDISVQWLHNEVQLPDARHSTTQPRKTKGSGFFVFSRLEVTRAEWEQKDEFICRAVHEAASPSQTVQRAVSVNPGLAGGSAQSQRAPDRVLCHSGQQQGLPRAAGGSVPHPRCHCGAGRADWPGPPELDVCVEEAEGEAPWTWTGLC
On to B1, for which, in assay [1], the binding result was “no binding”.

B2: IgE mutant 1 (protein)
chain: ASTQSPSVFPLTRCCKNIPSNATSVTLGCLATGYFPEPVMVTWDTGSLNGTTMTLPATTLTLSGHYATISLLTVSGAWAKQMFTCRVAHTPSSTDWVDNKTFSVCSRDFTPPTVKILQSSCDGGGHFPPTIQLLCLVSGYTPGTINITWLEDGQVMDVDLSTASTTQEGELASTQSELTLSQKHWLSDRTYTCQVTYQGHTFEDSTKKCADSNPRGVSAYLSRPSPFDLFIRKSPTITCLVVDLAPSKGTVNLTWSRASGKPVNHSTRKEEKQRNGTLTVTSTLPVGTRDWIEGETYQCRVTHPHLPRALMRSTTKTSGPRAAPEVYAFATPEWPGSRDKRTLACLIQNFMPEDISVQWLHNEVQLPDARHSTTQPRKTKGSGFFVFSRLEVTRAEWEQKDEFICRAVHEAASPSQTVQRAVSVNPGLAGGSAQSQRAPDRVLCHSGQQQGLPRAAGGSVPHPRCHCGAGRADWPGPPELDVCVEEAEGEAPWTWTGLC
For the molecule B2, the binding result in assay [1] and in assay [2] was “no binding” throughout.

B3: IgE mutant 62 (protein)
chain: ASTQSPSVFPLTRCCKNIPSNATSVTLGCLATGYFPEPVMVTWDTGSLNGTTMTLPATTLTLSGHYATISLLTVSGAWAKQMFTCRVAHTPSSTDWVDNKTFSVCSRDFTPPTVKILQSSCDGGGHFPPTIQLLCLVSGYTPGTINITWLEDGQVMDVDLSTASTTQEGELASTQSELTLSQAHWLSDRTYTCQVTYQGHTFEDSTKKCADSNPRGVSAYLSRPSPFDLFIRKSPTITCLVVDLAPSKGTVNLTWSRASGKPVNHSTRKEEKQRNGTLTVTSTLPVGTRDWIEGETYQCRVTHPHLPRALMRSTTKTSGPRAAPEVYAFATPEWPGSRDKRTLACLIQNFMPEDISVQWLHNEVQLPDARHSTTQPRKTKGSGFFVFSRLEVTRAEWEQKDEFICRAVHEAASPSQTVQRAVSVNPGLAGGSAQSQRAPDRVLCHSGQQQGLPRAAGGSVPHPRCHCGAGRADWPGPPELDVCVEEAEGEAPWTWTGLC
Turning to B3, in assay [1], the binding result is given as “no binding”.

B4: IgE mutant 4 (protein)
chain: ASTQSPSVFPLTRCCKNIPSNATSVTLGCLATGYFPEPVMVTWDTGSLNGTTMTLPATTLTLSGHYATISLLTVSGAWAKQMFTCRVAHTPSSTDWVDNKTFSVCSRDFTPPTVKILQSSCDGGGHFPPTIQLLCLVSGYTPGTINITWLEDGQVMDVDLSTASTTQEGELASTQSELTLSQKHWLSDRTYTCQVTYQGHTFEDSTKKCADSNPRGVSAYLSRPSPFDLFIRKSPTITCLVVDLAPSKGTVNLTWSRASGKPVNHSTRKEEKQRNGTLTVTSTLPVLHQDWLDGKEYQCRVTHPHLPRALMRSTTKTSGPRAAPEVYAFATPEWPGSRDKRTLACLIQNFMPEDISVQWLHNEVQLPDARHSTTQPRKTKGSGFFVFSRLEVTRAEWEQKDEFICRAVHEAASPSQTVQRAVSVNPGLAGGSAQSQRAPDRVLCHSGQQQGLPRAAGGSVPHPRCHCGAGRADWPGPPELDVCVEEAEGEAPWTWTGLC
Take B4: the binding result in assay [1] and in assay [2] was “no binding” throughout.

B5: IgE mutant 50 (protein)
chain: ASTQSPSVFPLTRCCKNIPSNATSVTLGCLATGYFPEPVMVTWDTGSLNGTTMTLPATTLTLSGHYATISLLTVSGAWAKQMFTCRVAHTPSSTDWVDNKTFSVCSRDFTPPTVKILQSSCDGGGHFPPTIQLLCLVSGYTPGTINITWLEDGQVMDVDLSTASTTQEGELASTQSELTLSQKHWLSDRTYTCQVTYQGHTFEDSTKKCADSNPRGVSAYLSRPSPFDLFIRKSPTITCLVVDLAPSKGTVNLTWSRASGKPVNHSTRKEEKQRNGTLTVTSTLPVGTRDWIEGETYQCRVTHPHLPRALMRSTTKTSGPRAAPEVYAFATPEWPGSRDKRTLACLIQNFMPEDISVQWLHNEVQLPDARHSTTQPRKTKGSGFFVFSRLEVTRAEWEQKDEFICRAVHEAASPSQTVQRAVSVNPGLAGGSAQSQRAPDRVLCHSGQQQGLPRAAGGSVPHPRCHCGAGRADWPGPPELDVCVEEAEGEAPWTWTGLC
With B5, the binding result in assay [1] is given as “no binding”.

Values taken from US6914129 (dated 2005).
